The labels stand for the following.
B1: BBSome complex member BBS5 (Homo sapiens), Q8N3I7 (parent)
chain: MSVLDALWEDRDVRFDLSAQQMKTRPGEVLIDCLDSIEDTKGNNGDRGRLLVTNLRILWHSLALSRVNVSVGYNCILNITTRTANSKLRGQTEALYILTKCNSTRFEFIFTNLVPGSPRLFTSVMAVHRAYETSKMYRDFKLRSALIQNKQLRLLPQEHVYDKINGVWNLSSDQGNLGTFFITNVRIVWHANMNDSFNVSIPYLQIRSIKIRDSKFGLALVIESSQQSGGYVLGFKIDPVEKLQESVKEINSLHKVYSASPIFGVDYEMEEKPQPLEALTVEQIQDDVEIDSDGHTDAFVAYFADGNKQQDREPVFSEELGLAIEKLKDGFTLQGLWEVMS
partner: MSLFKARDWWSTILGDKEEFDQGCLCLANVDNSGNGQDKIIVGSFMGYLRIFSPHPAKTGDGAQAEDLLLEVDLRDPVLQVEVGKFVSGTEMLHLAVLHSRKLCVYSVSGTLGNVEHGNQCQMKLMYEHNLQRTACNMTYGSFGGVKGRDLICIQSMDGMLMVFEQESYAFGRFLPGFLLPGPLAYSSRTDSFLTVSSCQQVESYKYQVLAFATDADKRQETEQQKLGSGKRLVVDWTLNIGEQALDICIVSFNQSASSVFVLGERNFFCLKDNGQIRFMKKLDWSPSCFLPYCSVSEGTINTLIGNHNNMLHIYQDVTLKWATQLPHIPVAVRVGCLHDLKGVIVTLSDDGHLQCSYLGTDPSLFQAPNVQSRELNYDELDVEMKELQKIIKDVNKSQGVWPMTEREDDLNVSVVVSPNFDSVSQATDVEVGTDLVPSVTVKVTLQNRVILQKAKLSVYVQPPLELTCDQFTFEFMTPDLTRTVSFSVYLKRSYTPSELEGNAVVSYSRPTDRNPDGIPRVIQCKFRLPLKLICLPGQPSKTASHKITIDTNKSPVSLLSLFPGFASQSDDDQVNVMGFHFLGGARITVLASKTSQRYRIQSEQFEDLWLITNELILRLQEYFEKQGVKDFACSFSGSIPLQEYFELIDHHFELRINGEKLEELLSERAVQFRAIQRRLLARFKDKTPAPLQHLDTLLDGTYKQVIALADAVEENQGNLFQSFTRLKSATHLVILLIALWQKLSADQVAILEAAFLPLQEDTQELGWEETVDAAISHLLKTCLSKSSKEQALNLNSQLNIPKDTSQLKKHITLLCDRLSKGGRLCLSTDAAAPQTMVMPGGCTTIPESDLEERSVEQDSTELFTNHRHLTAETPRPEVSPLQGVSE

In this test the parent is B1. Particulars: with pthb1_human BBS9, Q3SYG4.
As for S61F, the “effect of a mutation on the interaction” value is recorded as “disrupting interaction strength”.
In the case of S61E, the “effect of a mutation on the interaction” value is “with no effect”.
Next, A259K: “with no effect”.
On to V199A, for which the “effect of a mutation on the interaction” value is on record as “with no effect”.
To V199K belongs “with no effect”; to W59E, “with no effect”.
To W59K belongs “with no effect”.
Regarding S134E, the “effect of a mutation on the interaction” value is “with no effect”.
On to K215A, for which the “effect of a mutation on the interaction” value is reported as “with no effect”.
As for T81E, the “effect of a mutation on the interaction” value was “with no effect”.
To N307A belongs “with no effect”; to L4A, “with no effect”.
Turning to D213E, the “effect of a mutation on the interaction” value is “with no effect”.
Turning to D311K, the “effect of a mutation on the interaction” value is recorded as “with no effect”.
Consider D311E, for which the “effect of a mutation on the interaction” value was “with no effect”.
Take A94E: the “effect of a mutation on the interaction” value is on record as “with no effect”.
For P118E, the “effect of a mutation on the interaction” value is recorded as “with no effect”.
With Q274K, the “effect of a mutation on the interaction” value is recorded as “with no effect”.
As for E325K, the “effect of a mutation on the interaction” value is on record as “with no effect”.
To R138K belongs “with no effect”; to N194K, “with no effect”; to Q20A, “disrupting interaction strength”.
To G306E belongs “with no effect”; to I237A, “with no effect”.
To I57K belongs “with no effect”; to M269A, “with no effect”; to M269E, “with no effect”.
In the case of E28K, the “effect of a mutation on the interaction” value is listed as “disrupting interaction strength”.
For G229E, the “effect of a mutation on the interaction” value was “with no effect”.
As to K150A, the “effect of a mutation on the interaction” value is reported as “with no effect”.
In the case of S65K, the “effect of a mutation on the interaction” value is listed as “with no effect”.
I206E: the “effect of a mutation on the interaction” value is given as “with no effect”.
Next, I206A: “with no effect”.
Next, K163A: “with no effect”.
Next, H190K: “with no effect”; H190A: “with no effect”.
Consider L95K, for which the “effect of a mutation on the interaction” value is “with no effect”.
Next, L218K: “with no effect”.
Next, I182E: “with no effect”; L34K: “with no effect”; I324A: “with no effect”.
Next, I324E: “with no effect”; N192E: “with no effect”; Y231A: “disrupting interaction strength”.
As to Y231K, the “effect of a mutation on the interaction” value was “with no effect”.
To Y231E belongs “with no effect”; to R143K, “with no effect”; to N78K, “with no effect”.
To Y131E belongs “with no effect”; to L55K, “with no effect”; to L55E, “disrupting interaction strength”.
For the variant D162A, the “effect of a mutation on the interaction” value is “with no effect”.
On to S225E, for which the “effect of a mutation on the interaction” value is “with no effect”.
V240A: the “effect of a mutation on the interaction” value is reported as “with no effect”.
Take V240K: the “effect of a mutation on the interaction” value was “with no effect”.
To A304E belongs “with no effect”.
For Y137E, the “effect of a mutation on the interaction” value is reported as “with no effect”.
To S200A belongs “with no effect”; to V221K, “with no effect”.
To G264E belongs “with no effect”.
To N44E belongs “with no effect”; to G166K, “with no effect”.
Regarding A219K, the “effect of a mutation on the interaction” value was “with no effect”.
Take D238K: the “effect of a mutation on the interaction” value is “with no effect”.
To V256E belongs “with no effect”; to H295K, “with no effect”; to N85A, “with no effect”.
Next, N85E: “with no effect”.
Regarding L320A, the “effect of a mutation on the interaction” value is reported as “with no effect”.
To V247E belongs “with no effect”; to V247K, “with no effect”; to L64K, “with no effect”.
Next, N149E: “with no effect”.
As for E249K, the “effect of a mutation on the interaction” value is reported as “with no effect”.
With L50K, the “effect of a mutation on the interaction” value is on record as “with no effect”.
Next, L51E: “with no effect”; Q21K: “with no effect”.
In the case of Q21E, the “effect of a mutation on the interaction” value was “with no effect”.
To L146K belongs “with no effect”; to N165A, “with no effect”.
For the variant D293K, the “effect of a mutation on the interaction” value is recorded as “with no effect”.
To R129K belongs “with no effect”; to P261K, “with no effect”; to P261E, “with no effect”.
Next, P156K: “with no effect”.
Next, R207A: “with no effect”.
Take P314A: the “effect of a mutation on the interaction” value is “with no effect”.
As for T179A, the “effect of a mutation on the interaction” value is on record as “with no effect”.
Next, V29A: “disrupting interaction strength”; L98A: “with no effect”.

Source of the values: IntAct's records for PubMed 29039417.
